{"source": "patent US20210340530A1", "about": "(INTELLIA THERAPEUTICS, published 2021)", "key": {"[1]": {"biological_target": "T1, … (VLD) WT1 peptide pulsed on target cells (HLA-02.01 positive T2 cell line; OCI-AML3)", "assay": "cell-based or functional assay"}, "[2]": {"biological_target": "T2, … (RMF) WT1 peptide pulsed on target cells (HLA-02.01 positive T2 cell line; OCI-AML3)", "assay": "cell-based or functional assay"}, "[3]": {"biological_target": "T1, … (VLD) WT1 peptide pulsed on target …", "assay": "cell-based or functional assay", "remark": "listed apart in the source"}, "[4]": {"biological_target": "T1, … (VLD) WT1 peptide pulsed on target …", "assay": "cell-based or functional assay", "remark": "listed apart in the source"}, "[5]": {"biological_target": "T1, … (VLD) WT1 peptide pulsed on target …", "assay": "cell-based or functional assay", "remark": "listed apart in the source"}, "[6]": {"biological_target": "T2, … (RMF) WT1 peptide pulsed on target …", "assay": "cell-based or functional assay", "remark": "listed apart in the source"}, "[7]": {"biological_target": "T1, … (VLD) WT1 peptide pulsed on target …", "assay": "cell-based or functional assay", "remark": "listed apart in the source"}, "[8]": {"biological_target": "T2, … (RMF) WT1 peptide pulsed on target …", "assay": "cell-based or functional assay", "remark": "listed apart in the source"}, "[9]": {"biological_target": "T3, VLD-Tetramer (pMHC tetramer with WT1 peptide …)", "T3 construct": "Staining reagent; also called VLD (Wilms' tumor antigen) tetramer; TCR specific pMHC tetramer", "assay": "flow cytometry, VLD-Tetramer staining of engineered T cells; TRAC RNP only", "description": "(§1) Four to 12 days after RNP nucleofection, edited T cells (200 ul/200,000 cells) were collected in a 96 well round bottom plate and spun down at 500 g for 5 minutes. Cells were then resuspended in an antibody mixture containing a combination of antibodies targeting CD3, CD4, CD8, CD45RO, CD45RA, CD27, CCR7, CD62L, and/or the TCR specific pMHC tetramer or TCR specific Vbeta chain antibody. The mixture was incubated for 45 minutes at room temperature in the dark. Samples were spun down at 500 g for 5 minutes, cell pellets collected, and resuspended in 1:10,000 DAPI (Biolegend—#422801) in FACS buffer. Flow cytometry was then performed using the cytoflex according to the manufacturer's instructions.\n(§2) T cells were evaluated with additional engineered TCRs for the impact of endogenous beta chains on pairing of both the inserted alpha chain and inserted beta chain. The experiment was performed as described herein except tetramer staining was used to measure MFI and the AAV inserts in Table 31 were used for transduction."}, "[10]": {"biological_target": "T3, VLD-Tetramer (pMHC tetramer with WT1 …)", "assay": "flow cytometry, VLD-Tetramer staining of engineered T cells; TRAC + TRBC RNP", "description": "as §1, §2"}}}
{"binder": "TCR-G (WT1-specific T-cell receptor) (TCR, V domains shown, also called AV15-TCR-G) V domain 1: DQQVKQNSPSLSVQEGRISILNCDYTNSMFDYFLWYKKYPAEGPTFLISISSIKDKNEDGRFTVFLNKSAKHLSLHIVPSQPGDSAVYFCAARGQGNLIFGKGTKLSVKP V domain 2: EAGVAQSPRYKIIEKRQSVAFWCNPISGHATLYWYQQILGQGPKLLIQFQNNGVVDDSQLPKDRFSAERLKGVDSTLKIQPAKLEDSAVYLCASSLYRGEQYFGPGTRLTVTE", "values": [{"measurement": "Caspase 3/7 integrated intensity; TRAC only; 0 nM VLD; T2", "setting": "[1]", "value": 12200}, {"measurement": "Caspase 3/7 integrated intensity; TRAC only; 0.005 nM VLD; T2", "setting": "[1]", "value": 21000}, {"measurement": "Caspase 3/7 integrated intensity; TRAC only; 0.05 nM VLD; T2", "setting": "[1]", "value": 199000}, {"measurement": "Caspase 3/7 integrated intensity; TRAC only; 0.5 nM VLD; T2", "setting": "[1]", "value": "1.01e+06"}, {"measurement": "Caspase 3/7 integrated intensity; TRAC only; 5 nM VLD; T2", "setting": "[1]", "value": "1.14e+06"}, {"measurement": "Caspase 3/7 integrated intensity; TRAC only; 50 nM VLD; T2", "setting": "[1]", "value": "1.28e+06"}, {"measurement": "Caspase 3/7 integrated intensity; TRAC only; 500 nM VLD; T2", "setting": "[1]", "value": "1.31e+06"}, {"measurement": "Caspase 3/7 integrated intensity; TRAC/TRBC; 0 nM VLD; T2", "setting": "[1]", "value": 12400}, {"measurement": "Caspase 3/7 integrated intensity; TRAC/TRBC; 0.005 nM VLD; T2", "setting": "[1]", "value": 21000}, {"measurement": "Caspase 3/7 integrated intensity; TRAC/TRBC; 0.05 nM VLD; T2", "setting": "[1]", "value": 311000}, {"measurement": "Caspase 3/7 integrated intensity; TRAC/TRBC; 0.5 nM VLD; T2", "setting": "[1]", "value": 964000}, {"measurement": "Caspase 3/7 integrated intensity; TRAC/TRBC; 5 nM VLD; T2", "setting": "[1]", "value": "1.26e+06"}, {"measurement": "Caspase 3/7 integrated intensity; TRAC/TRBC; 50 nM VLD; T2", "setting": "[1]", "value": "1.04e+06"}, {"measurement": "Caspase 3/7 integrated intensity; TRAC/TRBC; 500 nM VLD; T2", "setting": "[1]", "value": "1.19e+06"}, {"measurement": "Caspase 3/7 integrated intensity; TRAC only; 500 nM RMF; T2", "setting": "[2]", "value": 4950}, {"measurement": "Caspase 3/7 integrated intensity; TRAC/TRBC; 500 nM RMF; T2", "setting": "[2]", "value": 6800}, {"measurement": "IL2 release; TRAC only; 0 nM VLD; T2", "setting": "[3]", "value": 338, "unit": "pg/mL"}, {"measurement": "IL2 release; TRAC only; 0.005 nM VLD; T2", "setting": "[3]", "value": 326, "unit": "pg/mL"}, {"measurement": "IL2 release; TRAC only; 0.05 nM VLD; T2", "setting": "[3]", "value": 284, "unit": "pg/mL"}, {"measurement": "IL2 release; TRAC only; 0.5 nM VLD; T2", "setting": "[3]", "value": 305, "unit": "pg/mL"}, {"measurement": "IL2 release; TRAC only; 5 nM VLD; T2", "setting": "[3]", "value": 442, "unit": "pg/mL"}, {"measurement": "IL2 release; TRAC only; 50 nM VLD; T2", "setting": "[3]", "value": 1050, "unit": "pg/mL"}, {"measurement": "IL2 release; TRAC only; 500 nM VLD; T2", "setting": "[3]", "value": 1570, "unit": "pg/mL"}, {"measurement": "IL2 release; TRAC/TRBC; 0 nM VLD; T2", "setting": "[3]", "value": 306, "unit": "pg/mL"}, {"measurement": "IL2 release; TRAC/TRBC; 0.005 nM VLD; T2", "setting": "[3]", "value": 196, "unit": "pg/mL"}, {"measurement": "IL2 release; TRAC/TRBC; 0.05 nM VLD; T2", "setting": "[3]", "value": 198, "unit": "pg/mL"}, {"measurement": "IL2 release; TRAC/TRBC; 0.5 nM VLD; T2", "setting": "[3]", "value": 248, "unit": "pg/mL"}, {"measurement": "IL2 release; TRAC/TRBC; 5 nM VLD; T2", "setting": "[3]", "value": 351, "unit": "pg/mL"}, {"measurement": "IL2 release; TRAC/TRBC; 50 nM VLD; T2", "setting": "[3]", "value": 764, "unit": "pg/mL"}, {"measurement": "IL2 release; TRAC/TRBC; 500 nM VLD; T2", "setting": "[3]", "value": 1200, "unit": "pg/mL"}, {"measurement": "IFN-gamma release; TRAC/TRBC; 50 nM VLD; T2", "setting": "[4]", "value": 23600}, {"measurement": "IFN-gamma release; TRAC/TRBC; 500 nM VLD; T2", "setting": "[4]", "value": 31600}, {"measurement": "IFN-gamma release; only TRAC; 50 nM VLD; T2", "setting": "[4]", "value": 23700}, {"measurement": "IFN-gamma release; only TRAC; 500 nM VLD; T2", "setting": "[4]", "value": 27500}, {"measurement": "% CD4+ TNFa+ IFNg+; TRAC/TRBC; 0 nM VLD; T2", "setting": "[5]", "value": 2.1, "unit": "%"}, {"measurement": "% CD4+ TNFa+ IFNg+; TRAC/TRBC; 0.005 nM VLD; T2", "setting": "[5]", "value": 1.6, "unit": "%"}, {"measurement": "% CD4+ TNFa+ IFNg+; TRAC/TRBC; 0.05 nM VLD; T2", "setting": "[5]", "value": 0.9, "unit": "%"}, {"measurement": "% CD4+ TNFa+ IFNg+; TRAC/TRBC; 0.5 nM VLD; T2", "setting": "[5]", "value": 0.6, "unit": "%"}, {"measurement": "% CD4+ TNFa+ IFNg+; TRAC/TRBC; 5 nM VLD; T2", "setting": "[5]", "value": 0.2, "unit": "%"}, {"measurement": "% CD4+ TNFa+ IFNg+; TRAC/TRBC; 50 nM VLD; T2", "setting": "[5]", "value": 0.1, "unit": "%"}, {"measurement": "% CD8+ TNFa+ IFNg+; TRAC/TRBC; 0 nM VLD; T2", "setting": "[5]", "value": 0.4, "unit": "%"}, {"measurement": "% CD8+ TNFa+ IFNg+; TRAC/TRBC; 0.005 nM VLD; T2", "setting": "[5]", "value": 7.6, "unit": "%"}, {"measurement": "% CD8+ TNFa+ IFNg+; TRAC/TRBC; 0.05 nM VLD; T2", "setting": "[5]", "value": 28.7, "unit": "%"}, {"measurement": "% CD8+ TNFa+ IFNg+; TRAC/TRBC; 0.5 nM VLD; T2", "setting": "[5]", "value": 46.5, "unit": "%"}, {"measurement": "% CD8+ TNFa+ IFNg+; TRAC/TRBC; 5 nM VLD; T2", "setting": "[5]", "value": 63.1, "unit": "%"}, {"measurement": "% CD8+ TNFa+ IFNg+; TRAC/TRBC; 50 nM VLD; T2", "setting": "[5]", "value": 71.4, "unit": "%"}, {"measurement": "% CD4+ TNFa+ IFNg+; TRAC/TRBC; 50 nM RMF; T2", "setting": "[6]", "value": 2.2, "unit": "%"}, {"measurement": "% CD8+ TNFa+ IFNg+; TRAC/TRBC; 50 nM RMF; T2", "setting": "[6]", "value": 0.4, "unit": "%"}, {"measurement": "% CD4+ CD107a+; TRAC/TRBC; 0 nM VLD; T2", "setting": "[7]", "value": 4.62, "unit": "%"}, {"measurement": "% CD4+ CD107a+; TRAC/TRBC; 0.005 nM VLD; T2", "setting": "[7]", "value": 5.06, "unit": "%"}, {"measurement": "% CD4+ CD107a+; TRAC/TRBC; 0.05 nM VLD; T2", "setting": "[7]", "value": 4.23, "unit": "%"}, {"measurement": "% CD4+ CD107a+; TRAC/TRBC; 0.5 nM VLD; T2", "setting": "[7]", "value": 4.74, "unit": "%"}, {"measurement": "% CD4+ CD107a+; TRAC/TRBC; 5 nM VLD; T2", "setting": "[7]", "value": 4.44, "unit": "%"}, {"measurement": "% CD4+ CD107a+; TRAC/TRBC; 50 nM VLD; T2", "setting": "[7]", "value": 4.52, "unit": "%"}, {"measurement": "% CD8+ CD107a+; TRAC/TRBC; 0 nM VLD; T2", "setting": "[7]", "value": 3.15, "unit": "%"}, {"measurement": "% CD8+ CD107a+; TRAC/TRBC; 0.005 nM VLD; T2", "setting": "[7]", "value": 12.2, "unit": "%"}, {"measurement": "% CD8+ CD107a+; TRAC/TRBC; 0.05 nM VLD; T2", "setting": "[7]", "value": 34.2, "unit": "%"}, {"measurement": "% CD8+ CD107a+; TRAC/TRBC; 0.5 nM VLD; T2", "setting": "[7]", "value": 53.3, "unit": "%"}, {"measurement": "% CD8+ CD107a+; TRAC/TRBC; 5 nM VLD; T2", "setting": "[7]", "value": 65.8, "unit": "%"}, {"measurement": "% CD8+ CD107a+; TRAC/TRBC; 50 nM VLD; T2", "setting": "[7]", "value": 73.2, "unit": "%"}, {"measurement": "% CD4+ CD107a+; TRAC/TRBC; 50 nM RMF; T2", "setting": "[8]", "value": 4.67, "unit": "%"}, {"measurement": "% CD8+ CD107a+; TRAC/TRBC; 50 nM RMF; T2", "setting": "[8]", "value": 2.82, "unit": "%"}, {"measurement": "Mean % Tetramer+ (CD4+)", "setting": "[9]", "value": 77.5, "unit": "%"}, {"measurement": "Mean % Tetramer+ (CD8+)", "setting": "[9]", "value": 73.6, "unit": "%"}, {"measurement": "Mean Tetramer MFI (CD4+)", "setting": "[9]", "value": 101000, "unit": "MFI"}, {"measurement": "Mean Tetramer MFI (CD8+)", "setting": "[9]", "value": 102000, "unit": "MFI"}, {"measurement": "Mean % Tetramer+ (CD4+)", "setting": "[10]", "value": 85.3, "unit": "%"}, {"measurement": "Mean % Tetramer+ (CD8+)", "setting": "[10]", "value": 81.9, "unit": "%"}, {"measurement": "Mean Tetramer MFI (CD4+)", "setting": "[10]", "value": 251000, "unit": "MFI"}, {"measurement": "Mean Tetramer MFI (CD8+)", "setting": "[10]", "value": 190000, "unit": "MFI"}]}
